Data taken from publication PMC9239255, “Switching off Bacterial Flagellar Biogenesis by YdiU-Mediated UMPylation of FlhDC”.

Biological target: T1, FlhDC (native, un-UMPylated) (Escherichia coli K-12 MG1655, UniProt P0A8S9;P0ABY7 1-116;1-192)
T1 sequence 1: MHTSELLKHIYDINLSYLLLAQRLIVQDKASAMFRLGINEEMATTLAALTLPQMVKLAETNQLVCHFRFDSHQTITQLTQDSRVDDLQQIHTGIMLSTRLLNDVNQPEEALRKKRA
T1 sequence 2: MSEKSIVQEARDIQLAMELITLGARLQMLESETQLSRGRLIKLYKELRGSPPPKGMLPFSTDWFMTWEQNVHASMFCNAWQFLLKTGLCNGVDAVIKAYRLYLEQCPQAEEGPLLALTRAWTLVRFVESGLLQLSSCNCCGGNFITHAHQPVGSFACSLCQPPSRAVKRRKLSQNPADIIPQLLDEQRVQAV
Test: EMSA; 10 nM DNA; shift at protein:DNA ratio greater than 1
Conditions: protein: recombinant; tags: none apparent (pET21b; reverse primer carries stop codon); chain copies: 4;2; label: 5'-FAM on strand 1 (Methods call both oligos FAM-flhB); blunt

B1: pflhB (flhB promoter) (dsDNA)
DNA 1: ATTAACGCCATAAACCCCGCCTTTTTTACCGCTTACTCTGCCTATTGGCGT
DNA 2: ACGCCAATAGGCAGAGTAAGCGGTAAAAAAGGCGGGGTTTATGGCGTTAAT
Does B1 bind?
Result: binds
